Data as given in KR20220134462A (dated 2022).

Legend:
[1] = target: T1, MCF-7 세포주의 세포막에 발현된 B7-H3 (UniProt Q5ZPR3 29-534); test: cell ELISA on fixed MCF-7 cells (표 2)
T1 construct: whole, on cells; Endogenous B7-H3 of the MCF-7 cell line; also called MCF-7 cell
T1 sequence (looked up): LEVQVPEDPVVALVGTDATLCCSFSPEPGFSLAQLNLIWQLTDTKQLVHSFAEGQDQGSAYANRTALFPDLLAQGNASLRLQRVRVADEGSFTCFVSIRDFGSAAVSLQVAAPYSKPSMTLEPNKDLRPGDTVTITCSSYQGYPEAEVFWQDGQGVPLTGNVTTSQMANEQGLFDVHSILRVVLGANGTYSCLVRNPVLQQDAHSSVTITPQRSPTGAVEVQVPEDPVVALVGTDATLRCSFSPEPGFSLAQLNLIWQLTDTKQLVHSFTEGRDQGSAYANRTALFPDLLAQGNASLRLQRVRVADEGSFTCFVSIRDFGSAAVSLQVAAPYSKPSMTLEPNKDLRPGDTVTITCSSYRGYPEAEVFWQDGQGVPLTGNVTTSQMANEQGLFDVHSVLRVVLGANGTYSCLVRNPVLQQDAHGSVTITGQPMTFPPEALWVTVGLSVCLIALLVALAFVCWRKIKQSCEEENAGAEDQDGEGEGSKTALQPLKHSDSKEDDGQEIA

[2] = target: RKO/B7H3 세포주에 과발현된 B7-H3 (UniProt Q5ZPR3); test: cell ELISA on fixed RKO/B7H3 cells (표 3)

B1: #1 항체 (B7-H3 항체) (antibody, V domains shown)
VH: EVQLLESGGGLVQPGGSLRLSCAASGFTFSSYAMSWVRQAPGKGLEWVSTITGSGGSTYYADSVKGRFTISRDNSKNTLYLQMNSLRAEDTAVYYCARYKSGAFDIWGQGTLVTVSS
VL: EIVLTQSPGTLSLSPGERATLSCRASQGIGNYLGWYQQKPGQAPRLLIYTASSLQSGIPDRFSGSGSGTDFTLTISRLEPEDFAVYYCQQGYSTPSWTFGQGTKVEIK
- EC50 [1]: 605 pM
- EC50 [2]: 15 pM

B2: #2 항체 (B7-H3 항체) (antibody, V domains shown)
VH: EVQLLESGGGLVQPGGSLRLSCAASGFTFSAYYMIWVRQAPGKGLEWVSITNPSGGVTSYAQKFQGRFTISRDNSKNTLYLQMNSLRAEDTAVYYCARVGGRGFDIWGQGTLVTVSS
VL: EIVLTQSPGTLSLSPGERATLSCHASQGISNYVAWYQQKPGQAPRLLIYDASNRATGIPDRFSGSGSGTDFTLTISHLEPEDFAVYYCQQSYSTLLTFGQGTKVEIK
- EC50 [1]: 61 pM
- EC50 [2]: 36 pM

B3: #3 항체 (B7-H3 항체) (antibody, V domains shown)
VH: EVQLLESGGGLVQPGGSLRLSCAASGFTFSTYYMTWVRQAPGKGLEWVSIINPRGGSTSYAEKFQGRFTISRDNSKNTLYLQMNSLRAEDTAVYYCARWNLGMDVWGQGTLVTVSS
VL: EIVLTQSPGTLSLSPGERATLSCRVSQSISSYLNWYQQKPGQAPRLLIYDASHRATGIPDRFSGSGSGTDFTLTISRLEPEDFAVYYCQQYYAPSVTFGQGTKVEIK
- EC50 [1]: 197 pM
- EC50 [2]: 65 pM

B4: #4 항체 (B7-H3 항체) (antibody, V domains shown)
VH: EVQLLESGGGLVQPGGSLRLSCAASGFTFSSYGMHWVRQAPGKGLEWVSAISGSGTSIYYANSVKSRFTISRDNSKNTLYLQMNSLRAEDTAVYYCARGAGWFDYWGQGTLVTVSS
VL: QSVLTQPPSASGTPGQRVTISCSGSTSNIGSNTVNWYQQLPGTAPKLLIYGKNIRPNGVPDRFSGSKSGTSASLAISGLHSEDEADYYCQSYDSSLSGWVFGGGTKLTVL
- EC50 [1]: 502 pM
- EC50 [2]: 42 pM

B5: #5 항체 (B7-H3 항체) (antibody, V domains shown)
VH: EVQLLESGGGLVQPGGSLRLSCAASGFTFSTYAMSWVRQAPGKGLEWVSAISGSGGSTLYADSVKGRFTISRDNSKNTLYLQMNSLRAEDTAVYYCARGGSATWAFDLWGQGTLVTVSS
VL: QSVLTQPPSASGTPGQRVTISCSGSSSNIGSNYVYWYQQLPGTAPKLLIYRNNQRPSGVPDRFSGSKSGTSASLAISGLRSEDEADYYCGTWDSSLSGVVFGGGTKLTVL
- EC50 [1]: 1740 pM
- EC50 [2]: 91 pM

B6: #6 항체 (B7-H3 항체) (antibody, V domains shown)
VH: EVQLLESGGGLVQPGGSLRLSCAASGFTFSTYAISWVRQAPGKGLEWVSSIYYSGYTHYNPSLESRFTISRDNSKNTLYLQMNSLRAEDTAVYYCARGYSGWMDVWGQGTLVTVSS
VL: QSVLTQPPSASGTPGQRVTISCGGNNIGSKSVHWYQQLPGTAPKLLIYDNNKRPSGVPNRFSGSKSGTSASLAISGLRSEDEADYYCAAWDDSLNVPVFGGGTKLTVL
- EC50 [1]: 234 pM
- EC50 [2]: 65 pM

B7: #7 항체 (B7-H3 항체) (antibody, V domains shown)
VH: EVQLLESGGGLVQPGGSLRLSCAASGFTFSNFWIGWVRQAPGKGLEWVSWINPPGSITSYADSVKGRFTISRDNSKDTLYLQMNSLRAEDTAVYYCAREVGDVLDYWGQGTLVTVSS
VL: QSVLTQPPSASGTPGQRVTISCTGTSSDIGRYNYVSWYQQLPGTAPKLLIYRNTQRPSGVPDRFSGSKSGTSASLAISGLRSEDEADYYCGTWDSSLNAYVFGGGTKLTVL
- EC50 [1]: 1010 pM
- EC50 [2]: 187 pM

B8: #8 항체 (B7-H3 항체) (antibody, V domains shown)
VH: EVQLLESGGGLVQPGSSLRLSCAASGFTFSSYWISWVRQAPGKGLEWVSEISPSGNTNYNPSLKSRFTISRDNSKNTLYLQMNSLRAEDTAVYYCAREVGDLLDYWGQGTLVTVSS
VL: QSVLTQPPSASGTPGQRVTISCSGSNIGNNYVSWYQQLPGTAPKLLIYQDSKRPSGVPDRFSGSKSGTSASLAISGLRSEDEADYYCLVWDRSSDHFVFGGGTKLTVL
- EC50 [1]: 159 pM
- EC50 [2]: 60 pM

B9: #9 항체 (B7-H3 항체) (antibody, V domains shown)
VH: EVQLLESGGGLVQPGGSLRLSCAASGFTFSSYAMNWVRQAPGKGLEWVSTISGSGGQTYYADSVKGRFTISRDNSKNTLYLQMNSLRAEDTAVYYCARWRSIWAFDYWGQGTLVTVSS
VL: QSVLTQPPSASGTPGQRVTISCSDNNIGSKSVHWYQQLPGTAPKLLIYDNNKRPSGVPDRFSGSKSGTSASLAISGLRSEDEADYYCGTWDDSLSGPVFGGGTKLTVL
- EC50 [1]: 322 pM
- EC50 [2]: 50 pM
